Reference: patent US20090162360A1

Target: recombinant human IGF-1R on I24 cells (human) (UniProt P08069)
Experiment: cellular FACS IGF-1R-ANGPT2 bridging assay: I24 cells + hIgG isotype, then 2 µg/mL hANGPT2, <ANGPT2>mIgG1-Biotin and Streptavidin-PE; negative control; untreated I24 cells (panel A): Mean 5.01

Mean (FL2-H fluorescence): 8.76
Substance: hIgG Isotype (antibody)
